What was measured:
Test in all cases: pull-down; MBP fusion protein (1 µM) held on amylose resin, His-tagged protein (1 µM) in vitro translated in rabbit reticulocyte lysate; room temperature, 4 hrs; no lipids; Western blot with anti-His; signals given as % of FL to FL protein A self-interaction
Conditions in all cases: one partner purified
[1] = biological target: T1, MBP-protA fragment aa 1–254 (Wuhan nodavirus (WhNV), UniProt Q3KSM3 1-254)
T1 construct: also called 1–254 MBP/protA; source: E. coli strain TB1, purified (amylose resin); not shown: MBP, N-terminal, kept
T1 sequence: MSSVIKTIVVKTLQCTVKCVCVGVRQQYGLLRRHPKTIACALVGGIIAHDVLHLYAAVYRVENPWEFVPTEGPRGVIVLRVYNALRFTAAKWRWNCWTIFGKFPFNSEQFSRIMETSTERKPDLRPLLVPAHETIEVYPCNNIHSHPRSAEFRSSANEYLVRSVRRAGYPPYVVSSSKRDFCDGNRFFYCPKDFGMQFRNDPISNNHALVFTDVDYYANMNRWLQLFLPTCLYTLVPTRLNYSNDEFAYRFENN

[2] = biological target: T2, MBP-protA fragment aa 1–839 (Wuhan nodavirus (WhNV), UniProt Q3KSM3 1-839)
T2 construct: also called 1–839 MBP/protA; source: E. coli strain TB1, purified (amylose resin); not shown: MBP, N-terminal, kept
T2 sequence: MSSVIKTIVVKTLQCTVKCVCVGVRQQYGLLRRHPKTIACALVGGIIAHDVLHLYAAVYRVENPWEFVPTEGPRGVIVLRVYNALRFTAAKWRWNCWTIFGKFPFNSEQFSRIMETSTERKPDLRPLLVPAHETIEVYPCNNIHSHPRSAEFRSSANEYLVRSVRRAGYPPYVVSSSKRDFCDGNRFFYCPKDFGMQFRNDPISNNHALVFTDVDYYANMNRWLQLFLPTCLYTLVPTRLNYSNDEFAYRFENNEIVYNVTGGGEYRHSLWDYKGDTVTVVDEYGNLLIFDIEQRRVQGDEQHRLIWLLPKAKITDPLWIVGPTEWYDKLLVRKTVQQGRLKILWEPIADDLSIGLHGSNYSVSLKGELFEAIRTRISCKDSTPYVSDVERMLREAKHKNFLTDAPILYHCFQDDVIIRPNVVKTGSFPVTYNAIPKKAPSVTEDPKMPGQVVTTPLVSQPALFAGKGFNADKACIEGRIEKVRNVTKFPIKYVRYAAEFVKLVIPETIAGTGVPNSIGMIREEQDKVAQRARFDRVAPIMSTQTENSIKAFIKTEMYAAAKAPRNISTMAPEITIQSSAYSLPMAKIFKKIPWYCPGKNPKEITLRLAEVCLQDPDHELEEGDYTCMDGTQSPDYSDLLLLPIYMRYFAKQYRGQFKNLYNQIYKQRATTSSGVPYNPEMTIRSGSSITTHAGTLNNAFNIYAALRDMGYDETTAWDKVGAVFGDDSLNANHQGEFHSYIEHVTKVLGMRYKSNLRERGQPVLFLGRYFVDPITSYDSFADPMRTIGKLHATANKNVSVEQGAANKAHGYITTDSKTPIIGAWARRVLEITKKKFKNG

[3] = biological target: T3, MBP-protA fragment aa 481–659 (Wuhan nodavirus (WhNV), UniProt Q3KSM3 481-659)
T3 construct: source: E. coli strain TB1, purified (amylose resin); not shown: MBP, N-terminal, kept
T3 sequence: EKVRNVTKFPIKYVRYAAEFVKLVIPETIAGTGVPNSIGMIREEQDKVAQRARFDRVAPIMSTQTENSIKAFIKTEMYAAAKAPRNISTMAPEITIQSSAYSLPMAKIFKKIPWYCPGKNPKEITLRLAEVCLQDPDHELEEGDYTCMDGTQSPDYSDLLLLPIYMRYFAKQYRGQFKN

B1: His-tagged WhNV protein A, in vitro translated (natural protein)
chain: MSSVIKTIVVKTLQCTVKCVCVGVRQQYGLLRRHPKTIACALVGGIIAHDVLHLYAAVYRVENPWEFVPTEGPRGVIVLRVYNALRFTAAKWRWNCWTIFGKFPFNSEQFSRIMETSTERKPDLRPLLVPAHETIEVYPCNNIHSHPRSAEFRSSANEYLVRSVRRAGYPPYVVSSSKRDFCDGNRFFYCPKDFGMQFRNDPISNNHALVFTDVDYYANMNRWLQLFLPTCLYTLVPTRLNYSNDEFAYRFENNEIVYNVTGGGEYRHSLWDYKGDTVTVVDEYGNLLIFDIEQRRVQGDEQHRLIWLLPKAKITDPLWIVGPTEWYDKLLVRKTVQQGRLKILWEPIADDLSIGLHGSNYSVSLKGELFEAIRTRISCKDSTPYVSDVERMLREAKHKNFLTDAPILYHCFQDDVIIRPNVVKTGSFPVTYNAIPKKAPSVTEDPKMPGQVVTTPLVSQPALFAGKGFNADKACIEGRIEKVRNVTKFPIKYVRYAAEFVKLVIPETIAGTGVPNSIGMIREEQDKVAQRARFDRVAPIMSTQTENSIKAFIKTEMYAAAKAPRNISTMAPEITIQSSAYSLPMAKIFKKIPWYCPGKNPKEITLRLAEVCLQDPDHELEEGDYTCMDGTQSPDYSDLLLLPIYMRYFAKQYRGQFKNLYNQIYKQRATTSSGVPYNPEMTIRSGSSITTHAGTLNNAFNIYAALRDMGYDETTAWDKVGAVFGDDSLNANHQGEFHSYIEHVTKVLGMRYKSNLRERGQPVLFLGRYFVDPITSYDSFADPMRTIGKLHATANKNVSVEQGAANKAHGYITTDSKTPIIGAWARRVLEITKKKFKNGTGEEQYRCSNAWPQKDEAAIRAAMAAVLEVDEAQLIAQNEAVLKVNSLDQFPVVFDTYYDHKQLAEVDGQLVGTDLHIKEEDERQPETSIDSVPSTGPPPSNGDPNAGGKPTDGPSKGKRKVKGRRPRTAGDPATLRLTDAGSSRRVKPPRKLRPEAKRGGRPIETLVFKNSSLS
notes: also called His-protA; FL His-protA; source: in vitro translated in nuclease-treated rabbit reticulocyte lysates
self-interaction efficiency, % of FL to FL protein A self-interaction [1]: 67%
self-interaction efficiency, % of FL to FL protein A self-interaction [2]: 108%
self-interaction efficiency, % of FL to FL protein A self-interaction [3]: 17%

Source: PMC3934934, “The Self-Interaction of a Nodavirus Replicase Is Enhanced by Mitochondrial Membrane Lipids” (PLoS ONE, 2014)
